Data: patent publication US20220403392 (published 2022)

B1: NU 3' + 5' fiber (mixed)
DNA 1: TCCCTTTAGGGAATGACCCTGAAGTTCATCTGCACCACCGAGGGAAATCCCTTTTTCGCCTAGGTTGGGTAGGGTGGTGGCG
DNA 2: CGCCTAGGTTGGGTAGGGTGGTGGCGTTTTTCCCTAAAGGGATGACCCTGAAGTTCATCTGCACCACCGAAGGGATTTCCCT
DNA 3: CGGTGGTGCAGATGAACTTCAGGGTCA
B2: RA 5'3' + 5'3' fiber (mixed)
DNA 1: GGTTGGTGTGGTTGGTGGTTGGTGTGGTTGGTTTTCCCTTTAGGGAATGACCCTGAAGTTCATCTGCACCACCGAGGGAAATCCCTTTTTGGTTGGTGTGGTTGGTGGTTGGTGTGGTTGG
DNA 2: GGTTGGTGTGGTTGGTGGTTGGTGTGGTTGGTTTTTCCCTAAAGGGATGACCCTGAAGTTCATCTGCACCACCGAAGGGATTTCCCTTTTGGTTGGTGTGGTTGGTGGTTGGTGTGGTTGG
DNA 3: CGGTGGTGCAGATGAACTTCAGGGTCA
B3: RA 5' + 5' fiber (mixed)
DNA 1: GGTTGGTGTGGTTGGTGGTTGGTGTGGTTGGTTTTCCCTTTAGGGAATGACCCTGAAGTTCATCTGCACCACCGAGGGAAATCCCTT
DNA 2: GGTTGGTGTGGTTGGTGGTTGGTGTGGTTGGTTTTTCCCTAAAGGGATGACCCTGAAGTTCATCTGCACCACCGAAGGGATTTCCCT
DNA 3: CGGTGGTGCAGATGAACTTCAGGGTCA
B4: RA 5' + 3' fiber (mixed)
DNA 1: GGTTGGTGTGGTTGGTGGTTGGTGTGGTTGGTTTTCCCTTTAGGGAATGACCCTGAAGTTCATCTGCACCACCGAGGGAAATCCCTT
DNA 2: TTCCCTAAAGGGATGACCCTGAAGTTCATCTGCACCACCGAAGGGATTTCCCTTTTGGTTGGTGTGGTTGGTGGTTGGTGTGGTTGG
DNA 3: CGGTGGTGCAGATGAACTTCAGGGTCA
B5: RA 3' + 3' fiber (mixed)
DNA 1: TCCCTTTAGGGAATGACCCTGAAGTTCATCTGCACCACCGAGGGAAATCCCTTTTTGGTTGGTGTGGTTGGTGGTTGGTGTGGTTGG
DNA 2: TTCCCTAAAGGGATGACCCTGAAGTTCATCTGCACCACCGAAGGGATTTCCCTTTTGGTTGGTGTGGTTGGTGGTTGGTGTGGTTGG
DNA 3: CGGTGGTGCAGATGAACTTCAGGGTCA

molecular target: thrombin (Homo sapiens, UniProt P00734;P00734 P00734:328-363,P00734:364-622); experiment: inhibition; TT, plasma alone 16.3 s; about 0.5 uM in human plasma, 37 C

activity, > 60 s:
B1
B2
B3
B4
B5
